Consider one protein from article PMC10520873, “Biochemical investigation of the tryptophan biosynthetic enzyme anthranilate phosphoribosyltransferase in plants” (The Journal of Biological Chemistry, 2023).

Substrate in this data set: Nc1c(O)cccc1C(=O)O
Kind of data set: purified protein. It counts as biochemical, Physcomitrium patens. Particulars: 1 mM PR-PPi, 45 mM imidazole HCl pH 7.4, 30 °C, 3-HAA 0-0.5 mM.

B1: PpPAT1 (Physcomitrium patens) (protein)
chain: MAAALASQRTWLPSSSVGPFRGSFATAPASSPRVLGVPRKFAVESGKWEVLVRNVRAQSSTVTVPARTLSIPQVLEQLIQGTNLTQAQTEEVMETLLADANPAIIGAFLALLRAKGETLDEVTGLASAMLSRAIPVRTVPGSLDIVGTGGDGANTVNISTGSCILAAACGAKVAKHGSRSSSSACGSADVLETLGVAIDLGPEGVAKCVEDVGVGFMFAPTYHPAMKVVAPVRRSLKIKTAFNILGPMLNPSRAPHSIVGVYHDNLVEKMAKILQHFGTKRTLVVHCHGLDEMSPLGGGRVLEVTQDKIESFVFDPLNFGIPRCTLEDLKGGNADFNAKSLRNVFAGEPGPIADSLILNAAAGIMACGLVKDLGEGVSLARDVLRSGRANTVLDNWISLSQKLKAEEVSE
notes: codon-optimized gene in pET28a, His-tagged, E. coli BL21 (DE3), Ni-NTA
Take B1: the Km turned out to be 99.71 ± 11.2 µM, the kcat was found to be 0.0533 ± 0.00167 s⁻¹ and the specificity constant (kcat/Km) worked out at 537 M⁻¹ s⁻¹.
